From patent CN114891104A (YOURUI SAISI WUHAN BIOTECHNOLOGY CO LTD, dated 2022)

Target: T1, 重组人proAMH蛋白 (recombinant human proAMH protein) (human, UniProt P03971 25-560)
T1 construct: Expressed in Expi293 cells and purified on Ni-IMAC; nothing is said about the recombinant protein itself; also called His-tag重组人proAMH蛋白; 人proAMH标准品蛋白; not shown: His-tag; neither its length nor its terminus is stated
T1 sequence (looked up): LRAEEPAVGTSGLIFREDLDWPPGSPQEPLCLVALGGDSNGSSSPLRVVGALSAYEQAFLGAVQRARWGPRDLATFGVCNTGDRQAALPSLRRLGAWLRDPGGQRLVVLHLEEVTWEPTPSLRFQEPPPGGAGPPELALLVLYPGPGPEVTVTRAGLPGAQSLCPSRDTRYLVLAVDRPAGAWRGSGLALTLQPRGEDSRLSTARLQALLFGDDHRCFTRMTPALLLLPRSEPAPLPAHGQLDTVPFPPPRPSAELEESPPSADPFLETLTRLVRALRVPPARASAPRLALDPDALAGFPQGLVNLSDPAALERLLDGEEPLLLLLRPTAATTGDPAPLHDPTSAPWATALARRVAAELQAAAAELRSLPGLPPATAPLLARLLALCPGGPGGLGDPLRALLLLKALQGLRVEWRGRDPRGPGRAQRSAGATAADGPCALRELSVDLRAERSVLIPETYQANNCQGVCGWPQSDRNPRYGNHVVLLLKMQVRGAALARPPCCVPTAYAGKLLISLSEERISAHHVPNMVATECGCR
Assay: SPR, Biacore 3000; antibody immobilised on CM5 chip, proAMH at 100-3 nM as analyte

B1: 单克隆抗体A (抗人proAMH蛋白兔单克隆抗体A) (antibody, V domains shown)
VH: QSVKESEGGLFKPTDTLTLTCTVSAFSISTYGVSWVRQAPGNGLEYIGWIAATGKVFYASWAKSRSTITRNTYENTVTLKMTSLTVADTATYFCAHVIWATQTFDFWGPGTLVTVSS
VL: DVVMTQTPASVSDPVGGTVTIKCQASQTITNFLSWFQQKPGQPPKLLIYNTMTLASGVPSRFKGSGSGTEYTLTISGVECADAATYYCQEGDNWDEVDAVFGGGTEVVVKG
notes: Recombinant rabbit monoclonal antibody made in 293F cells; kappa light chain, heavy constant region called IgG1 type; Copies '2' follows from the IgG format; also called monoclonal antibody A
B1 gave a Kd of 6.02 nM, a koff of 0.000117 s⁻¹ and a kon of 19500 M⁻¹ s⁻¹.
